This note sets out measurements from IntAct's records for PubMed 22879593.

One test concerns the target USH1C, Q9Y6N9-1.
For the substance “Cadherin-23 (Homo sapiens), Q9H251 L3188Q;L3215Q”, the “effect of a mutation on the interaction” value is reported as “disrupting interaction strength”.

The next test deals with USH1C, Q9Y6N9-1. This is another data set of the same source.
USH1C, Q9Y6N9-1, sequence (Q9Y6N9 whole entry): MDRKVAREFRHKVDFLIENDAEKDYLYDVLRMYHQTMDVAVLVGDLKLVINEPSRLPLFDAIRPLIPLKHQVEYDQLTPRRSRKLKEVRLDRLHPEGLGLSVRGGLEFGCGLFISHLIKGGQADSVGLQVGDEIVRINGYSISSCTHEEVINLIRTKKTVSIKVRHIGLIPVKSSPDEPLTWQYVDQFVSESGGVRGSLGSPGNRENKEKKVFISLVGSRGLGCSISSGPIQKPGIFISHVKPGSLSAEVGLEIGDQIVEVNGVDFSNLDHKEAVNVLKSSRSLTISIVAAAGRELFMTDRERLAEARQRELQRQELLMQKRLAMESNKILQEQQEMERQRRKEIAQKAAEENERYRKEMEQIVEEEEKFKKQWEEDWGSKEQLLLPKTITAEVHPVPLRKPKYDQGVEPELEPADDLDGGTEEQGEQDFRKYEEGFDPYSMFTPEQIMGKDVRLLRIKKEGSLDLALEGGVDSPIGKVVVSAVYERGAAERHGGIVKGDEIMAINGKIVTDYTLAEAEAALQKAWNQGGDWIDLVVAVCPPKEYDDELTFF
Turning to “Cadherin-23 (Homo sapiens), Q9H251 L3215Q”, the “effect of a mutation on the interaction” value is reported as “decreasing interaction strength”.
For “Cadherin-23 (Homo sapiens), Q9H251 Y3222E”, the “effect of a mutation on the interaction” value is “decreasing interaction strength”.
Regarding “Cadherin-23 (Homo sapiens), Q9H251 L3223Q”, the “effect of a mutation on the interaction” value is on record as “with no effect”.
As for “Cadherin-23 (Homo sapiens), Q9H251 L3228Q”, the “effect of a mutation on the interaction” value is on record as “with no effect”.
Consider “Cadherin-23 (Homo sapiens), Q9H251 L3225Q”, for which the “effect of a mutation on the interaction” value is listed as “with no effect”.
Consider “Cadherin-23 (Homo sapiens), Q9H251 L3219Q”, for which the “effect of a mutation on the interaction” value is reported as “decreasing interaction strength”.
